# From patent US20050114927
# Target: Yeast wild-type L3 incorporated into ribosomes of wild-type cells
protein,measurement,value
Pokeweed antiviral protein (PAP) (protein) VNTIIYNVGSTTISKYATFLNDLRNEAKDPSLKCYGIPMLPNTNTNPKYVLVELQGSNKKTITLMLRRNNLYVMGYSDPFETNKCRYHIFNDISGTERQDVETTLCPNANSRVSKNINFDSRYPTLESKAGVKSRSQVQLGIQILDSNIGKISGVMSFTEKTEAEFLLVAIQMVSEAARFKYIENQVKTNFNRAFNPNPKVLNLQETWGKISTAIHDAKNGVLPKPLELVDASGAKWIVLRVDEIKPDVALLNYVGGSCQTTY,association with isolated ribosomes (immunoblot with antibody against PAP),Both PAP and PAPx were associated with ribosomes in wild-type cells
